Each block holds one substance with its values, some of them ahead of it.
Legend:
[1] = molecular target: CarHCfe (Cystobacter ferrugineus CarH), purified (Cystobacter ferrugineus); test: SEC; analytical size exclusion, Superdex200 HR 10/30; 100 ul of 50-100 uM pure apoprotein alone, in the dark; dimer by apparent Mr
[2] = molecular target: CarHCfe (Cystobacter ferrugineus CarH), purified (Cystobacter ferrugineus); test: SEC; analytical size exclusion, Superdex200 HR 10/30; 100 ul of 50-100 uM protein after 15-min incubation with five-fold molar excess of AdoCbl, in the dark; dimer by apparent Mr
[3] = molecular target: CarHCfu (Cystobacter fuscus CarH), purified (Cystobacter fuscus); test: SEC; analytical size exclusion, Superdex200 HR 10/30; 100 ul of 50-100 uM pure apoprotein alone, in the dark; dimer by apparent Mr
[4] = molecular target: CarHCfu (Cystobacter fuscus CarH), purified (Cystobacter fuscus); test: SEC; analytical size exclusion, Superdex200 HR 10/30; 100 ul of 50-100 uM protein after 15-min incubation with five-fold molar excess of AdoCbl, in the dark; dimer by apparent Mr
[5] = system: CarHCfu (Cystobacter fuscus DSM 2262 (strain as in the genome table)); test: EMSA; conditions: EMSA: 0.1 M KCl, 10 mM MgCl2, 25 mM Tris-HCl pH 8, 1 mM DTT, 10% glycerol, 200 ng/ul BSA, 1 ug salmon sperm DNA, 1.2 nM probe, AdoCbl 5-fold over protein, 37 °C

- stoichiometry N [1]: 2
- stoichiometry N [2]: 2
Substance: CarHCfe (Cystobacter ferrugineus CarH), purified (natural protein)

- stoichiometry N [3]: 2
- stoichiometry N [4]: 2
Substance: CarHCfu (Cystobacter fuscus CarH), purified (natural protein)

Substance: Pcrt Cfu 170 bp
- Kd [5]: 34.7 nM

Source: publication PMC9304148
